Source: patent publication US20240417485A1 (UNIVERSITY OF PITTSBURGH OF THE COMMONWEALTH SYSTEM OF …, published 2024)

Legend:
[1] = molecular target: T1, Human uPAR-His recombinant protein (human, UniProt Q03405 23-303); test: ELISA, uPAR-His coated, anti-FLAG-HRP detection
T1 construct: Bought protein; also called recombinant human uPAR; recombinant human uPAR protein; not shown: His tag

[2] = molecular target: T2, recombinant uPAR-Biotin (human, UniProt Q03405 23-303, limits assumed, biotin, site not stated); test: BLItz, uPAR-Biotin on streptavidin biosensor
T2 construct: also called human uPAR (BLItz)

[3] = molecular target: human CD3 protein (human); test: ELISA, human CD3 protein coated, anti-human IgG1 Fc-HRP detection
Protocol: (§1) ELISA: The binding and specificity of VH, VH-Fc, and DbTE to uPAR or CD3 were analyzed by ELISA. uPAR-His protein or CD3 protein was coated at 50 ng/well at 4° C. overnight, then blocked with 5% milk for 1 hours at 37° C. After washing 3 times by 0.05% PBST, 3-fold serially diluted VH and VH-Fc binders were incubated on the plate for 1 hour at 37° C. The binding of VH candidates was detected by anti-FLAG M2-peroxidase (HRP) antibody (Sigma-Aldrich) while VH-Fc or DbTE binding was detected by HRP conjugated goat anti-human IgG1 Fc (Sigma-Aldrich) at 1:1000 dilution. The plates were washed 3 times by 0.05% PBST between each reagent's incubation. Binding activity was detected using 3,3′,5,5′-tetramethylbenzidine (Sigma-Aldrich) and was stopped by TMB stop buffer (ScyTek Laboratories). Absorbance was read at 450 nm.

[4] = molecular target: T1, Human uPAR-His recombinant protein; test: ELISA, recombinant human uPAR coated, anti-human IgG1 Fc-HRP detection
Protocol: as §1

B1: VH 3 (VHH)
VHH: EVQLVESGGGLVQPGGSLRLSCAASGFTFSRYWMSWVRQAPGKALEWIGEINHSGSTNYNPSLKSLVTISRDNSKNTLYLQMNSLRAEDTATYYCARSLVPALSYYYYYGMDVWGQGTTVTVSS
notes: Fully human single VH domain from a phage library, expressed in E. coli; It was purified on Ni-NTA and detected with anti-FLAG, so a His tag and a FLAG tag are implied; also called clone 3; anti-uPAR VH 3
EC50 [1]: 12.1 nM
Kd [2]: 17.1 nM
koff [2]: 0.0014 s⁻¹
kon [2]: 79000 M⁻¹ s⁻¹

B2: DbTE 3 (bispecific antibody, human IgG1)
chain: EVQLVESGGGLVQPGGSLRLSCAASGFTFSRYWMSWVRQAPGKALEWIGEINHSGSTNYNPSLKSLVTISRDNSKNTLYLQMNSLRAEDTATYYCARSLVPALSYYYYYGMDVWGQGTTVTVSSGSGSSGSGSSGSGSSQVQLVQSGGGVVQPGRSLRLSCKASGYTFTRYTMHWVRQAPGKGLEWIGYINPSRGYTNYNQKVKDRFTISRDNSKNTAFLQMDSLRPEDTGVYFCARYYDDHYCLDYWGQGTPVTVSSGGGGSGGGGSGGGGSGGGGSGGGGSGGGGSDIQMTQSPSSLSASVGDRVTITCSASSSVSYMNWYQQTPGKAPKRWIYDTSKLASGVPSRFSGSGSGTDYTFTISSLQPEDIATYYCQQWSSNPFTFGQGTKLQITRGSGSSGDKTHTCPPCPAPEAAGGPSVFLFPPKPKDTLMISRTPEVTCVVVDVSHEDPEVKFNWYVDGVEVHNAKTKPREEQYNSTYRVVSVLTVLHQDWLNGKEYKCKVSNKALGAPIEKTISKAKGQPREPQVYTLPPSRDELTKNQVSLTCLVKGFYPSDIAVEWESNGQPENNYKTTPPVLDSDGSFFLYSKLTVDKSRWQQGNVFSCSVMHEALHNHYTQKSLSLSPGKGSHHHHHH
notes: Single chain: VH 3, linker, humanized OKT3 scFv (VH-(G4S)6-VL), human IgG1 Fc with LALAPG mutations, His tag; also called anti-uPAR DbTE 3; domain-based bispecific T cell engager 3
Kd [2]: 6.6 nM
koff [2]: 0.00072 s⁻¹
kon [2]: 110000 M⁻¹ s⁻¹
EC50 [3]: 28.8 nM
EC50 [4]: 7.7 nM

B3: DbTE 115 (bispecific antibody, human IgG1)
chain: EVQLVESGGGLVQPGGSLRLSCKGSGFTFGDYAIGWVRQAPGQRLEWIGWINTNSGSPKYAQGFTGRFTISRDNSKNTLYLQMNSLRAEDTAVYYCATDVVVPWGQGSQVTVSSGSGSSGSGSSGSGSSQVQLVQSGGGVVQPGRSLRLSCKASGYTFTRYTMHWVRQAPGKGLEWIGYINPSRGYTNYNQKVKDRFTISRDNSKNTAFLQMDSLRPEDTGVYFCARYYDDHYCLDYWGQGTPVTVSSGGGGSGGGGSGGGGSGGGGSGGGGSGGGGSDIQMTQSPSSLSASVGDRVTITCSASSSVSYMNWYQQTPGKAPKRWIYDTSKLASGVPSRFSGSGSGTDYTFTISSLQPEDIATYYCQQWSSNPFTFGQGTKLQITRGSGSSGDKTHTCPPCPAPEAAGGPSVFLFPPKPKDTLMISRTPEVTCVVVDVSHEDPEVKFNWYVDGVEVHNAKTKPREEQYNSTYRVVSVLTVLHQDWLNGKEYKCKVSNKALGAPIEKTISKAKGQPREPQVYTLPPSRDELTKNQVSLTCLVKGFYPSDIAVEWESNGQPENNYKTTPPVLDSDGSFFLYSKLTVDKSRWQQGNVFSCSVMHEALHNHYTQKSLSLSPGKGSHHHHHH
Kd [2]: 1.2 nM
koff [2]: 4.2e-05 s⁻¹
kon [2]: 36000 M⁻¹ s⁻¹
EC50 [3]: 8.7 nM
EC50 [4]: 28 nM

B4: VH 115 (VHH)
VHH: EVQLVESGGGLVQPGGSLRLSCKGSGFTFGDYAIGWVRQAPGQRLEWIGWINTNSGSPKYAQGFTGRFTISRDNSKNTLYLQMNSLRAEDTAVYYCATDVVVPWGQGSQVTVSS
notes: Fully human single VH domain from a phage library, expressed in E. coli; It was purified on Ni-NTA and detected with anti-FLAG, so a His tag and a FLAG tag are implied
EC50 [1]: 34.2 nM
Kd [2]: 1.7 nM
koff [2]: 3.6e-05 s⁻¹
kon [2]: 21000 M⁻¹ s⁻¹
